Results published in patent publication US10556936B2, “Immunogenic proteins and fragments thereof from allergenic mites” (ALK-ABELLÓ A/S, priority 2016, dated 2020).
Marks after values point to notes of the source that are not given here.

Legend:
[1] = test system: HDM specific T-cell lines from HDM allergic donors; assay: T cell reactivity of protein: IL-5/IFNg FluoroSPOT or 72 h T cell proliferation in HDM specific T-cell lines (Example 2); format: cell-based, human; conditions: responding donors of tested HDM allergic donors
Description: PBMCs from European HDM-allergic individuals were recruited in the Copenhagen region (defined by clinical history of allergy to house dust mite and specific IgE to group 1 and group 2 major allergens from Der p and/or Der f and with measured specific IgE (CAP) >0.7 kU/L towards Der p/f 1 or Der p/f 2. In addition, PBMCs from 10 US HDM-allergic individuals were recruited in San Diego (defined by Der p extract IgE titers greater than 0.35 kUA/L). PBMCs were isolated from whole blood by density gradient centrifugation according to manufacturers' instructions (Ficoll-Hypaque, Amersham Biosciences, Uppsala, Sweden). Der p- and Der f-specific extract IgE titers were determined using the ImmunoCAP system (Thermo Fisher, Uppsala, Sweden). In a separate series of experiments, pooled plasma from 10 European and 10 American HDM atopic individuals from the San Diego region, respectively, was utilized to run 2D immunoblots to elucidate IgE and IgG reactivity towards the proteins, which had at least one peptide with positive T cell response.
T cells reactivity was determined by establishment of HDM specific T-cell lines according to standard methods. In short, PMBCs from HDM allergic donors were cultured for 2-3 weeks in the presence of house dust mite allergen extract. The responses to proteins having SEQ ID NOs 1-44 were assessed by IL-5/IFNg FluoroSPOT (Mabtech FS-0108-10) according manufacturer protocol, (after 2 weeks) or proliferation in a standard 72 h T cell proliferation assay, as described in Henmar H et al., Clin Exp Immunol 2008; 153(3):316-23. (after 3 weeks). In addition these established T cell lines were used for further characterization and epitope mapping.

[2] = test system: basophils in whole blood from HDM allergic donors; assay: Basophil Activation Test (BAT); format: cell-based, human; conditions: responding donors of tested HDM allergic donors; whole blood stimulated 1 h
Method in brief: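 Whole blood from HDM-allergic donors (n=14) was stimulated for 1 h with test proteins across a concentration range, e.g. 1, 10, 100 or 1000 ng/ml. Basophil surface activation markers were measured by flow cytometry, with Der p 1 and Der p 2 tested at the same concentrations as controls.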

B1: 33 (protein, listed as Dermatophagoides pteronyssinus)
chain: IEQVHIALGSNETEIIVTWTEPHKHDDKTSDAVVYYGQAKSSFDQKVKAISEYFKDDKTKYTTYRALLTGLLPGTEYHYRIQMDDLESSIFEFKTLKTGEENWLPRFAIYGDLGYVNEQSLPYLKKDVEQNLFDVIFHIGDFAYDLNDEHGKVGHHFMRSIEPVASKVAYMTCPGNHERHDNFSHYDSRFSMIGDRSQPIHSDKLNKRLNNHFHSMTIGPATIILFSTEYYYYTKYGWQQIEHQYRWLEQELKRANENRQKHPWIIVMGHRPLYCLKMGDDSCDHQTMERKEIRQGIRMHDEGERQYGLEDLFFKYGVDIQFYGHEHFYARLFPIYKYKMYNGTKSKNPYDHPGAPIHITTGSAGNKELHPEFNHLNDWVAEHFYDYGYTRLMFEDKYRIRLQQISDDQHGKVLDEIEIVKSSPQPHWMNVEHH
[1]
  % T cell responding donors to protein: 10 of 27
[2]
  % responding donors in BAT Assay: 1 of 8*

B2: 13 (protein, listed as Dermatophagoides farinae)
chain: KKTKDCDVEKPIRECLKNGLLRYSDGQKINQFPDSIEDLNRACEELKKSETCARNFIDTCTETSYEKRSLDSLLDGIQRVLKRLCRSQSKKEQLLQNVGCANSVVQDTKLCLKNYRMLVFAANKLNDKSKIMRILCCKSRKVAPCIGEAMKSKGNAVCSAKNIDYFREMHQNIKAEMTAVVCSDFERDQCENVEVPAITEAEYKDQNIFNPLRDLYKKVILA
[1]
  % T cell responding donors to protein: 6 of 29
[2]
  % responding donors in BAT Assay: 0 of 16

B3: 6 (protein, listed as Dermatophagoides pteronyssinus)
chain: MVKAVVVLKGDPNVSGTIFFEQQDNGPVKVTGSVQGLKPGLHGFHVHEFGDNTNGCTSAGAHYNPLNKTHGAPNDEERHVGDLGNIEANDKGVANVVIEDSLISLTGEKSIVGRSLVVHADPDDLGRGGHELSKTTGNAGGRLVCGVIGVTK
[1]
  % T cell responding donors to protein: 0 of 27
[2]
  % responding donors in BAT Assay: 1 of 8*

B4: 29 (protein, listed as Dermatophagoides pteronyssinus)
chain: MVKIGINGFGRIGRLVLRAAIKKGVEVAAINDPFLDVKYMVYMFKFDSTHGRYQGEVKEEGGLLVVDGQKIQVFQERNPAEIPWGKVGADYVVESTGVFTTIEKAKAHLAGGAKKVIISAPSADAPMYVMGVNHDKYDPKQQIISNASCTTNCLAPLAKVINDKFGIENGLMTTVHAITATQKTVDGPSGKLWRDGRGAGQNIIPASTGAAKAVGKVIPELNGKLTGMALRVPVPDVSVVDLTVTLKNPASYDEIKAAVKAAAESDHWKGILEYTDEEVVSSDFISDTHSSIFDAKAGIALTPTFVKLIAWYDNEFGYSNRVVDLIKYVASK
[1]
  % T cell responding donors to protein: 2 of 27
[2]
  % responding donors in BAT Assay: 1 of 8*

B5: 25 (protein, listed as Dermatophagoides pteronyssinus)
chain: MSSSSGKKYDFSGKVALVTGSSSGIGAAIALQFAQYGAQVTITGRDAAALESVAKRIEAESGHQPLQIVGNLLDQSLPAKLIDGTISKYGRLDFLVNNAGFSTQHRDIHDEKLMEAFDQVYGLNVRAVVQLSQLAATHLEKSKGNIINISSNLSMMPVHIIYSSSKAALDMITKTMAMEFGKKGVRVNSINPGPVATQFMRSLGMPVTFLKENEEFVKELTLLKFVAQPVEIANLASFLASDDARNMTGSIVVNDTGSLLAPRVDFKKLDEIKKK
[1]
  % T cell responding donors to protein: 3 of 26
[2]
  % responding donors in BAT Assay: 1 of 8*
